According to US20040014147A1 (RIGEL PHARMACEUTICALS, published 2004):
Read-outs that look alike come from different tables or passages of the source. Where no end group is shown, it is not given here.

Assays:
human adenosine kinase [1] = target: T1, human adenosine kinase (human, UniProt P55263 22-362); test: cell-based or functional assay
human adenosine kinase [2] = target: T1, human adenosine kinase; test: cell-based or functional assay; remark: listed apart in the source

T1 sequence (P55263 other isoform, or with tags, fused parts or gaps): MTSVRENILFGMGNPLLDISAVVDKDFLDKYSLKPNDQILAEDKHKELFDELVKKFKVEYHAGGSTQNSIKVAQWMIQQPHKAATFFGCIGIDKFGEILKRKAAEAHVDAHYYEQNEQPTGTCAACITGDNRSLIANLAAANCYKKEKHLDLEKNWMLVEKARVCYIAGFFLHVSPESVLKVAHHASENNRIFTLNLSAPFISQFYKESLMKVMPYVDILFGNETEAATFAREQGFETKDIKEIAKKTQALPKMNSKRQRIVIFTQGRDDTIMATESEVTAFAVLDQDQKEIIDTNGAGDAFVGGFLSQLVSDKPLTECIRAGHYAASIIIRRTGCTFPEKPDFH

Binder | Reporter Ratio (human adenosine kinase [1]) | endogenous ε inhibition ratio (human adenosine kinase [1]) | Reporter Ratio (human adenosine kinase [2])
DTMQVQCGVCRSGYVVAFWDVGP (peptide, not shown: large carriers, cysteine pairing not given here; also: expressed as GAL4/BFP-linker-peptide fusion, fusion sequences not given here) [peptide AR02E8 wt] | 1.77 | 15.3 | 2.93
DTMQVQCGVCAGGYVVAFWDVGP (peptide, not shown: large carriers) [peptide AR02E8RS] | – | – | 1.46
DTMQVQCGAGRSGYVVAFWDVGP (peptide, not shown: large carriers) [peptide AR02E8VC] | – | – | 1.13
DTMQVQCGVCRSGAGVAFWDVGP (peptide, not shown: large carriers) [peptide AR02E8YV] | – | – | 1.07
